In the supplement of paper PMC7125110:
± gives the standard error. This sample holds only a part of the variants without activity.

B1: glmS ribozyme (parent)
chain: AUAAAAGCGCCAGAACUACAGAAAUGUAGUUGACGAGGAGGAGGUUUAUCGAAUUUUCGGCGGAUGCCUCCAAA

Columns and labels:
Conditions in all cases: with glucosamine-6-phosphate
[1] = variants of: B1; assay: self-cleavage kobs at 40 uM GlcN6P; higher = faster cleavage; RNA array
Summary of the method: (§1)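 kcat and KM were obtained from weighted Michaelis–Menten fits across concentrations of kobs values. Those came from one- or two-exponential decay fits to per-tile medians normalised to baseline and to non-cleaving reference variants. The variants were barcoded ribozymes transcribed in situ by E. coli RNA polymerase on sequenced MiSeq chips and tracked through a hybridised Cy3 probe at 37 °C, with 40 μM to 10 mM glucosamine-6-phosphate in HEPES/KCl/Mg(OAc)2 buffer flowed in.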

[2] = variants of: B1; assay: self-cleavage kobs at 160 uM GlcN6P; higher = faster cleavage; RNA array
Summary of the method: as §1

[3] = variants of: B1; assay: self-cleavage kobs at 640 uM GlcN6P; higher = faster cleavage; RNA array
Summary of the method: as §1

[4] = variants of: B1; assay: self-cleavage kobs at 2500 uM GlcN6P; higher = faster cleavage; RNA array
Summary of the method: as §1

[5] = variants of: B1; assay: self-cleavage kobs at 10000 uM GlcN6P; higher = faster cleavage; RNA array
Summary of the method: as §1

Row | Variant | self-cleavage kobs at 40 uM GlcN6P [1] [s⁻¹] | self-cleavage kobs at 160 uM GlcN6P [2] [s⁻¹] | self-cleavage kobs at 640 uM GlcN6P [3] [s⁻¹] | self-cleavage kobs at 2500 uM GlcN6P [4] [s⁻¹] | self-cleavage kobs at 10000 uM GlcN6P [5] [s⁻¹]
1 | AUAAAUGCGCCAGAACUACAGAAAUGUAGUUGAAGAGGAGGAGGUUUAUCGAAUUUUCGGCGGAUGCCUCCAAA [A6U C34A] | < 1e-05 | < 1e-05 | < 1e-05 | < 1e-05 | < 1e-05
2 | AUAAAAGCGCCAGAACUACAGAAAUGUAGUUGACGAGGAGGAGGUUUCUCGAAUUUUCGGCGGCUGCCUCCAAA [A48C A64C] | < 1e-05 | < 1e-05 |  | < 1e-05 | 
3 | AUAAAAGCGCCAGAACUACAGAAAUGUAGUUGACGAGGAGGAGAUUUAUCGAAUUUUCGGCGGAUGCCUCGAAA [G44A C71G] | < 1e-05 | < 1e-05 | < 1e-05 |  | < 1e-05
4 | AUAAAAGCGCCAAAACUACAGAAAUGUAGUUGAGGAGGAGGAGGUUUAUUGAAUUUUCGGCGGAUGGCUCCAAA [G13A C34G C50U C67G] | 0.000108 ± 3.3e-05 |  | 0.00142 ± 0.00036 |  | 8.5e-05 ± 2.6e-05
5 | AUAAAAGGGCCAGAACUACAGAAAUGUAGUAGACGGGGAGGAGGUUUAUCGAAUUUUCGGCGGAUGCCUCCAAA [C8G U31A A36G] | < 1e-05 |  |  |  | 
6 | AUAAAAGCUCCAGAACUACAGAAAUGUACCUGACGAGGAGGAGGUUUAUCGAAUUUUCGGCGGAUGCCUCCAAA [G9U G29C U30C] | < 1e-05 | < 1e-05 | < 1e-05 | < 1e-05 | < 1e-05
7 | AUAAAAGCGCCAGAACUACAGAAAUGUAGUUGACGAGGAGGAGGUUUCUCGAAUUUUCGGCGAAUGCCUACAAA [A48C G63A C70A] | < 1e-05 |  |  |  | 
8 | AUAAAAGCGCCAGAACUACAGAAAUGUAGUUGACGAGGAGGAGGUUUAUCGAAUUUUCGCCGGUUGCCUCCAAA [G60C A64U] | < 1e-05 | < 1e-05 | < 1e-05 | < 1e-05 | < 1e-05
9 | AUAAAAUCGCCAGAACUACAGAAAUGUAGUUGACGAGGAGGAGCUUUAUCGAAUUUUCGGCGGAUGCCUCCAAA [G7U G44C] | < 1e-05 | < 1e-05 | < 1e-05 | < 1e-05 | < 1e-05
10 | AUAAAAGAGCCAGAACUACAGAAAUGUAGUUGACGAGAAGGAGGUUUAUCGAAUUUUCGGCGGAUGCCUCCAAA [C8A G38A] | < 1e-05 | < 1e-05 | < 1e-05 | < 1e-05 | < 1e-05
11 | AUAAAAGCGCCAGAACUACAGAAAUGUAGUUGACGAGGAGGAGGUUUAUGGAAUUUUCGGCGGAUACCUACAAA [C50G G66A C70A] | 7.79e-05 ± 2.3e-05 |  |  |  | 
12 | AUAAAAGCGCCAGAACUACAGAAAUGUAGUUGACGUGGAGGAGGUUUAUCGAAUUUUCGGCGGAUGUCUGCAAA [A36U C67U C70G] | 7.02e-05 ± 2.8e-05 |  |  |  | 3.53e-05 ± 1.7e-05
